Laboratory results as given in patent US20050260177A1.

Tests used:
[1] = biological target: Ra12 protein (Mycobacterium tuberculosis); assay: ELISA, Ra12 on plate, serum 1:1000, well 1
[2] = biological target: Ra12 protein (Mycobacterium tuberculosis); assay: ELISA, Ra12 on plate, serum 1:1000, well 2
[3] = biological target: Ra12 protein (Mycobacterium tuberculosis); assay: ELISA, Ra12 on plate, serum 1:2000, well 1
[4] = biological target: Ra12 protein (Mycobacterium tuberculosis); assay: ELISA, Ra12 on plate, serum 1:2000, well 2
[5] = biological target: Ra12 protein (Mycobacterium tuberculosis); assay: ELISA, Ra12 on plate, serum 1:4000, well 1
[6] = biological target: Ra12 protein (Mycobacterium tuberculosis); assay: ELISA, Ra12 on plate, serum 1:4000, well 2
[7] = biological target: Ra12 protein (Mycobacterium tuberculosis); assay: ELISA, Ra12 on plate, serum 1:8000, well 1
[8] = biological target: Ra12 protein (Mycobacterium tuberculosis); assay: ELISA, Ra12 on plate, serum 1:8000, well 2
[9] = biological target: Ra12 protein (Mycobacterium tuberculosis); assay: ELISA, Ra12 on plate, serum 1:16000, well 1
[10] = biological target: Ra12 protein (Mycobacterium tuberculosis); assay: ELISA, Ra12 on plate, serum 1:16000, well 2
[11] = biological target: Ra12 protein (Mycobacterium tuberculosis); assay: ELISA, Ra12 on plate, serum 1:32000, well 1
[12] = biological target: Ra12 protein (Mycobacterium tuberculosis); assay: ELISA, Ra12 on plate, serum 1:32000, well 2
[13] = biological target: Ra12 protein (Mycobacterium tuberculosis); assay: ELISA, Ra12 on plate, serum 1:64000, well 1
[14] = biological target: Ra12 protein (Mycobacterium tuberculosis); assay: ELISA, Ra12 on plate, serum 1:64000, well 2
[15] = biological target: Ra12 protein (Mycobacterium tuberculosis); assay: ELISA, Ra12 on plate, serum 1:128000, well 1
[16] = biological target: Ra12 protein (Mycobacterium tuberculosis); assay: ELISA, Ra12 on plate, serum 1:128000, well 2
[17] = biological target: Ra12 protein (Mycobacterium tuberculosis); assay: ELISA, Ra12 on plate, serum 1:256000, well 1
[18] = biological target: Ra12 protein (Mycobacterium tuberculosis); assay: ELISA, Ra12 on plate, serum 1:256000, well 2
[19] = biological target: Ra12 protein (Mycobacterium tuberculosis); assay: ELISA, Ra12 on plate, serum 1:512000, well 1
[20] = biological target: Ra12 protein (Mycobacterium tuberculosis); assay: ELISA, Ra12 on plate, serum 1:512000, well 2
[21] = biological target: Ra12 protein (Mycobacterium tuberculosis); assay: ELISA, Ra12 on plate, serum 1:1024000, well 1
[22] = biological target: Ra12 protein (Mycobacterium tuberculosis); assay: ELISA, Ra12 on plate, serum 1:1024000, well 2
[23] = biological target: Ra12 protein (Mycobacterium tuberculosis); assay: ELISA, Ra12 on plate, serum 1:1000, average of 2 wells
[24] = biological target: Ra12 protein (Mycobacterium tuberculosis); assay: ELISA, Ra12 on plate, serum 1:2000, average of 2 wells
[25] = biological target: Ra12 protein (Mycobacterium tuberculosis); assay: ELISA, Ra12 on plate, serum 1:4000, average of 2 wells
[26] = biological target: Ra12 protein (Mycobacterium tuberculosis); assay: ELISA, Ra12 on plate, serum 1:8000, average of 2 wells
[27] = biological target: Ra12 protein (Mycobacterium tuberculosis); assay: ELISA, Ra12 on plate, serum 1:16000, average of 2 wells
[28] = biological target: Ra12 protein (Mycobacterium tuberculosis); assay: ELISA, Ra12 on plate, serum 1:32000, average of 2 wells
[29] = biological target: Ra12 protein (Mycobacterium tuberculosis); assay: ELISA, Ra12 on plate, serum 1:64000, average of 2 wells
[30] = biological target: Ra12 protein (Mycobacterium tuberculosis); assay: ELISA, Ra12 on plate, serum 1:128000, average of 2 wells
[31] = biological target: Ra12 protein (Mycobacterium tuberculosis); assay: ELISA, Ra12 on plate, serum 1:256000, average of 2 wells
[32] = biological target: Ra12 protein (Mycobacterium tuberculosis); assay: ELISA, Ra12 on plate, serum 1:512000, average of 2 wells
[33] = biological target: Ra12 protein (Mycobacterium tuberculosis); assay: ELISA, Ra12 on plate, serum 1:1024000, average of 2 wells

With Preimmune sera (antibody) the ELISA absorbance at 450 nm [1] was 0.18 OD450, the ELISA absorbance at 450 nm [2] was 0.18 OD450 and the ELISA absorbance at 450 nm [3] was 0.15 OD450. It also gave an ELISA absorbance at 450 nm [4] of 0.17 OD450, an ELISA absorbance at 450 nm [5] of 0.15 OD450 and an ELISA absorbance at 450 nm [6] of 0.15 OD450. It also gave an ELISA absorbance at 450 nm [7] of 0.15 OD450, an ELISA absorbance at 450 nm [8] of 0.15 OD450 and an ELISA absorbance at 450 nm [9] of 0.15 OD450. It also gave an ELISA absorbance at 450 nm [10] of 0.14 OD450, an ELISA absorbance at 450 nm [11] of 0.14 OD450 and an ELISA absorbance at 450 nm [12] of 0.13 OD450. For the same substance, the ELISA absorbance at 450 nm [13] was 0.14 OD450, the ELISA absorbance at 450 nm [14] was 0.13 OD450 and the ELISA absorbance at 450 nm [15] was 0.15 OD450. The ELISA absorbance at 450 nm [16] was 0.14 OD450, the ELISA absorbance at 450 nm [17] was 0.15 OD450 and the ELISA absorbance at 450 nm [18] was 0.15 OD450. It also gave an ELISA absorbance at 450 nm [19] of 0.16 OD450, an ELISA absorbance at 450 nm [20] of 0.16 OD450 and an ELISA absorbance at 450 nm [21] of 0.16 OD450. It also gave an ELISA absorbance at 450 nm [22] of 0.16 OD450, an ELISA absorbance at 450 nm [23] of 0.18 OD450 and an ELISA absorbance at 450 nm [24] of 0.16 OD450. It also gave an ELISA absorbance at 450 nm [25] of 0.15 OD450, an ELISA absorbance at 450 nm [26] of 0.15 OD450 and an ELISA absorbance at 450 nm [27] of 0.15 OD450. It also gave an ELISA absorbance at 450 nm [28] of 0.14 OD450, an ELISA absorbance at 450 nm [29] of 0.13 OD450 and an ELISA absorbance at 450 nm [30] of 0.14 OD450. It also gave an ELISA absorbance at 450 nm [31] of 0.15 OD450, an ELISA absorbance at 450 nm [32] of 0.16 OD450 and an ELISA absorbance at 450 nm [33] of 0.16 OD450.
